B1: CSNK1G1 (parent)
chain: GSLPWQGLKADTLKERYQKIGDTK
B2: TPPP (parent)
chain: LCKDCQVIDGRNVTVTDVDIVFSK

Variants of: B1
Assay: protein stability index of a GFP-peptide fusion (GPS, HEK-293T) (PSI 1-6); higher = more stable
Conditions: c terminus: a fixed tail appended
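Further: lentivirally expressed fusions sorted by FACS into six bins by GFP to DsRed ratio, PSI derived from sequencing read proportions per bin multiplied by bin number.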

Protein stability index of substitutions, site by site:
T12: A 3.99, C 4.06, D 4.68, E 4.85, F 2.86, G 3.83, H 3.71, I 3.42, K 4.28, L 3.37, M 3.94, N 4.07, P 4.86, Q 4.19, R 4.33, S 4.58, V 4.2, W 3.27, Y 3.51
L13: A 3.96, C 3.71, D 4.49, E 4.66, F 4.2, G 4.12, H 4.64, I 4.48, K 4.15, M 3.46, N 4.81, P 4.06, Q 4.47, R 4.27, S 4.62, T 4.65, V 3.7, W 3.05, Y 3.72
K14: A 4.55, C 3.81, D 4.02, E 4.23, F 3.13, G 3.08, H 4.37, I 3.75, L 3.1, M 3.36, N 4.58, P 4.41, Q 3.52, R 3.8, S 3.88, T 4.09, V 4.14, W 2.74, Y 3.37
E15: A 3.74, C 3.37, D 4.25, F 3.56, G 4.07, H 3.43, I 3.26, K 3.29, L 3.66, M 3.51, N 3.39, P 3.97, Q 4.09, R 3.98, S 3.47, T 3.93, V 3.31, W 2.77, Y 3.1
R16: A 4.29, C 4.29, D 4.54, E 4.69, F 3.98, G 4.89, H 4.35, I 3.26, K 4.23, L 4.11, M 4.11, N 4.68, P 4.37, Q 4.44, S 4.71, T 4.07, V 4.25, W 2.99, Y 4.01
Y17: A 4.98, C 4.27, D 4.99, E 5.71, F 4.19, G 5.36, H 5.05, I 4.21, K 4.72, L 4.19, M 4.23, N 4.98, P 4.88, Q 4.81, R 4.13, S 4.45, T 4.83, V 4.04, W 3.82
Q18: A 4.46, C 3.76, D 4.47, E 4.54, F 2.91, G 4.09, H 4.09, I 3.57, K 3.62, L 3.91, M 3.64, N 4.11, P 4.66, R 3.96, S 4.35, T 4.26, V 3.64, W 3.34, Y 3.74
K19: A 3.94, C 3.56, D 4.67, E 4.45, F 3.05, G 4.17, H 4.24, I 3.54, L 3.74, M 3.68, N 4.35, P 3.95, Q 4.8, R 3.75, S 3.95, T 4.3, V 3.83, W 2.83, Y 3.86
I20: A 4.67, C 4.35, D 4.86, E 5.24, F 4.26, G 5, H 4.47, K 4.33, L 3.86, M 4.53, N 4.62, P 4.75, Q 4.36, R 4.2, S 4.65, T 4.46, V 4.3, W 3.62, Y 4.29
G21: A 3.59, C 3.29, D 4.57, E 4.37, F 3.42, H 4.15, I 3.41, K 4.71, L 4, M 3.87, N 3.86, P 4.62, Q 4.44, R 4.16, S 4.3, T 3.83, V 3.64, W 3.01, Y 3.74
D22: A 3.06, C 3.81, E 3.91, F 3, G 3.74, H 3.75, I 3.41, K 3.56, L 3.32, M 3, N 3.2, P 3.7, Q 3.82, R 3.43, S 4.05, T 3.52, V 3.65, W 2.64, Y 2.98
T23: A 4.46, C 3.4, D 4.55, E 4.68, F 3.38, G 4.34, H 4.08, I 3.81, K 4.74, L 3.82, M 3.97, N 3.92, P 3.91, Q 3.96, R 3.84, S 4.53, V 4.01, W 2.78, Y 3.36
K24: A 4.01, C 3.4, D 3.25, E 4.88, F 3, G 3.79, H 3.6, I 3.53, L 3.3, M 3.19, N 3.91, P 4.2, Q 4.07, R 3.72, S 3.79, T 4.08, V 3.39, W 2.95, Y 2.63

Variants of: B2
Assay: as above
Conditions: c terminus: a fixed tail appended

Protein stability index of substitutions, site by site:
L1: A 2.54, C 1.85, D 4.05, E 3.41, F 2.25, H 2.7, I 2.01, K 3.47, M 2.26, N 3.32, P 2.85, Q 3.08, R 1.57, S 2.91, T 2.73, V 2.71, W 1.89, Y 2.08
C2: A 3.56, D 4.08, E 4.36, F 2.48, G 3.37, H 3.42, I 2.93, K 3.07, L 3.09, M 3.24, N 3.59, P 4.04, Q 4.18, R 2.79, S 3.54, T 3.61, V 3.04, W 2.56, Y 2.75
K3: A 2.51, C 1.89, D 3.3, E 3.21, F 1.65, G 3.34, H 2.52, I 1.05, L 1.92, M 1.78, N 2.95, P 3.26, Q 2.18, R 2.15, S 2.17, T 2.83, W 1.49, Y 1.91
D4: A 1.76, C 2.35, E 2.71, F 1.93, G 2.42, H 1.57, I 2.02, K 2.31, L 1.83, M 2.1, N 1.69, P 2.25, Q 1.97, R 2.73, S 1.71, T 1.77, V 1.82, Y 1.81
C5: A 3.62, D 4.39, E 4.32, F 2.54, G 2.98, H 3.82, I 2.6, K 3.84, L 3.16, M 2.77, N 3.66, P 4.03, Q 3.75, R 3.38
